The values below come from patent US6623738 (University of California, dated 2003).

Assay [1] deals with T1, alkaline phosphatase (AP) alone (UniProt P05187 23-511).
T1 construct: Control protein; also called alkaline phosphatase protein
Briefly: AP histochemistry on transfected COS cells.

For assay [2], the target named is T2, AP fusion with Drosophila D-Sema II (Drosophila, UniProt Q24323 26-724).
T2 construct: also called Drosophila Sema II; not shown: alkaline phosphatase (AP) reporter
T2 sequence (looked up): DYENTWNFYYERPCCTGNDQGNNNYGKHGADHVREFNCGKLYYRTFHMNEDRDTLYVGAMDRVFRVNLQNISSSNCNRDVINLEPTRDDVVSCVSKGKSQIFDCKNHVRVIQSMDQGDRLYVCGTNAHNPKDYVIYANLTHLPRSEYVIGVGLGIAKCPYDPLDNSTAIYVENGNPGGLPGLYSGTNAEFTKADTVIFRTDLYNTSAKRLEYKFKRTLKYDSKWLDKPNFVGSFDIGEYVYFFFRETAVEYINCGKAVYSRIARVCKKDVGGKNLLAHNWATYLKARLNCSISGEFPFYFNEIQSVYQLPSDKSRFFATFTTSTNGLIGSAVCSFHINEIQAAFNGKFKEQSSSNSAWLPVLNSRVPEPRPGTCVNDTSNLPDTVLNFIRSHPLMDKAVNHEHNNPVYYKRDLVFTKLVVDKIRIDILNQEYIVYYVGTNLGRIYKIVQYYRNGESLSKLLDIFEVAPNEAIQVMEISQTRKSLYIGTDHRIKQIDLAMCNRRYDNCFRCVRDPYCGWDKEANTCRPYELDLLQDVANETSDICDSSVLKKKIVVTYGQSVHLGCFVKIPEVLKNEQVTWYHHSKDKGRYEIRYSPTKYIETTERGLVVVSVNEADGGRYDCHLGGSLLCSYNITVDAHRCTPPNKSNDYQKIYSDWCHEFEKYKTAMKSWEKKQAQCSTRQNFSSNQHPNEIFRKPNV
Kind of assay: AP fusion binding to transfected COS cells.

In assay [3] the target is T3, AP fusion with the ectodomain of Sema VIa (UniProt O35464 19-649).
T3 construct: extracellular domain; also called Sema VIa ectodomain; not shown: alkaline phosphatase (AP) reporter
T3 sequence (looked up): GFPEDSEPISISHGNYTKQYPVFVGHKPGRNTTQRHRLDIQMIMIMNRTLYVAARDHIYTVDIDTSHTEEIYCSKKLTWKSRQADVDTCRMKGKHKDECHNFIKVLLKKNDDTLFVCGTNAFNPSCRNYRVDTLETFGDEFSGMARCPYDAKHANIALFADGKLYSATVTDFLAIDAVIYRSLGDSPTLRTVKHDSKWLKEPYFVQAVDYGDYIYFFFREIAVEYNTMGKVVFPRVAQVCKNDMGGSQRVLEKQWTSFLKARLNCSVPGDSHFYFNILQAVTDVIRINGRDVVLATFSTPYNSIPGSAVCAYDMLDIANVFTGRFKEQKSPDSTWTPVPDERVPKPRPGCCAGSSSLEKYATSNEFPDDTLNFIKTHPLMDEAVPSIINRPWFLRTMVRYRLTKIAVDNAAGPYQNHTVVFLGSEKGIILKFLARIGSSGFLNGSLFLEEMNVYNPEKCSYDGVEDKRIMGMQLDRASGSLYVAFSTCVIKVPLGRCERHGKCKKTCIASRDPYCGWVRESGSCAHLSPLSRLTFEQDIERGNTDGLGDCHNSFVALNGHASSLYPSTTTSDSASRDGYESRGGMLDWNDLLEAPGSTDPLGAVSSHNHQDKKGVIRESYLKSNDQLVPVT
Kind of assay: AP fusion binding to transfected COS cells.

Assay [4] deals with T4, Sema E-AP fusion protein (mouse Sema E fused to alkaline phosphatase) (mouse, UniProt Q62181 21-751).
T4 construct: written as in the name; Partially purified conditioned medium; not shown: secreted alkaline phosphatase of vector APtag-4
T4 sequence (looked up): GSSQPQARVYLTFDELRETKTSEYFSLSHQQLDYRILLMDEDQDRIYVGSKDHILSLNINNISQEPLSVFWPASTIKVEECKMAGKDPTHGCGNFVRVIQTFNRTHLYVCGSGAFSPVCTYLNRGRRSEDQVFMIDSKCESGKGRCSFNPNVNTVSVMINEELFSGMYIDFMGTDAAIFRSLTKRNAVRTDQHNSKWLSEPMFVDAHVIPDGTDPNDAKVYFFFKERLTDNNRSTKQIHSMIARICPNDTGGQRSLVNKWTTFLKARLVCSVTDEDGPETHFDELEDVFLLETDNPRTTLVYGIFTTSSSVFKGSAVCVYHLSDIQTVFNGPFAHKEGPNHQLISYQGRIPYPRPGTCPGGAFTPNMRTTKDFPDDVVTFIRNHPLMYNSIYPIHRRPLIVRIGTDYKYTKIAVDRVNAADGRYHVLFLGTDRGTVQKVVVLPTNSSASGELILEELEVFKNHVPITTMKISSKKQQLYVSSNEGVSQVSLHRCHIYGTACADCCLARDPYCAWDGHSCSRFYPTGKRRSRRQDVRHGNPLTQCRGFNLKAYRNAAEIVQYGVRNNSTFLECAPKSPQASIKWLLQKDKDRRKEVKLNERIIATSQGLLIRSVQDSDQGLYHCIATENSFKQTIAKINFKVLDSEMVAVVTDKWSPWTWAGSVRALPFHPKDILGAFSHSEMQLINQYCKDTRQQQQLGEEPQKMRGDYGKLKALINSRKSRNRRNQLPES
Kind of assay: AP fusion binding to transfected COS cells.

T1 sequence (P05187 23-511 limits assumed): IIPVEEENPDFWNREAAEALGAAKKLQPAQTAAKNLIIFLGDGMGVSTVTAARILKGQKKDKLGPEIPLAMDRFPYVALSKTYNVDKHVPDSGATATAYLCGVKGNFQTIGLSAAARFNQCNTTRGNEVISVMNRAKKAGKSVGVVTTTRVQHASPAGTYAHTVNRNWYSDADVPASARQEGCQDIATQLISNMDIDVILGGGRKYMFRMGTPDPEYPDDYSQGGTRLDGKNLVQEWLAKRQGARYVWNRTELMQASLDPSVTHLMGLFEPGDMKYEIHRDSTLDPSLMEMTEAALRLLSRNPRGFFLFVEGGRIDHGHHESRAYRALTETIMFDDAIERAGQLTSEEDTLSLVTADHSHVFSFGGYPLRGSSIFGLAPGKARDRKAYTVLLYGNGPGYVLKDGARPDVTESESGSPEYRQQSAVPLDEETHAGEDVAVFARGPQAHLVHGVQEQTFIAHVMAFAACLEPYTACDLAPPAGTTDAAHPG

B1: mouse neuropilin-2(b5), myc-tagged, expressed in COS-7 cells (receptor, not shown: small tags and cut ends)
chain: RSQQDPPCGGRPNSKDAGYITSPGYPQDYPSHQNCEWIVYAPEPNQKIVLNFNPHFEIEKHDCKYDFIEIRDGDSESADLLGKHCGNIAPPTIISSGSVLYIKFTSDYARQGAGFSLRYEIFKTGSEDCSKNFTSPNGTIESPGFPEKYPHNLDCTFTILAKPRMEIILQFLTFDLEHDPLQVGEGDCKYDWLDIWDGIPHVGPLIGKYCGTKTPSKLRSSTGILSLTFHTDMAVAKDGFSARYYLIHQEPPENFQCNVPLGMESGRIANEQISASSTFSDGRWTPQQSRLHGDDNGWTPNLDSNKEYLQVDLRFLTMLTAIATQGAISRETQKGYYVKSYKLEVSTNGEDWMVYRHGKNHKIFQANNDATEVVLNKLHMPLLTRFIRIRPQTWHLGIALRLELFGCRVTDAPCSNMLGMLSGLIADTQISASSTREYLWSPSAARLVSSRSGWFPRNPQAQPGEEWLQVDLGTPKTVKGVIIQGARGGDSITAVEARAFVRKFKVSYSLNGKDWEYIQDPRTQQTKLFEGNMHYDTPDIRRFDPVPAQYVRVYPERWSPAGIGMRLEVLGCDWTDSKPTVETLGPTVKSEETTTPYPMDEDATECGENCSFEDDKDLQLPSGFNCNFDFPEETCGWVYDHAKWLRSTWISSANPNDRTFPDDKNFLKLQSDGRREGQYGRLISPPVHLPRSPVCMEFQYQAMGGHGVALQVVREASQESKLLWVIREDQGSEWKHGRIILPSYDMEYQIVFEGVIGKGRSGEISIDDIRISTDVPLENCMEPISAFAGEDFKGGTLPPGTEPTVDTVPVQPIPAYWYYVMAAGGAVLVLASVVLALVLHYHRFRYAAKKTDHSITYKTSHYTNGAPLAVEPTLTIKLEQERGSHC
notes: also called b5 isoform of neuropilin-2; SR2(b)5
On to B1, for which the binding result in assay [1] is given as “no binding”; in assay [2], “no binding”; in assay [3] it was “no binding”; in assay [4], “binds”.
